Measurements as given in patent US20100196345A1.

Target: Mannose/N-acetylglucosamine (Man/GlcNAc) receptor on thioglycolate-elicited mouse peritoneal macrophages (mouse) (UniProt Q61830)
Assay: cell-based or functional assay

Mannose/N-acetylglucosamine (Man/GlcNAc) receptor on thioglycolate-elicited mouse peritoneal macrophages (mouse), sequence (Q61830 20-1456): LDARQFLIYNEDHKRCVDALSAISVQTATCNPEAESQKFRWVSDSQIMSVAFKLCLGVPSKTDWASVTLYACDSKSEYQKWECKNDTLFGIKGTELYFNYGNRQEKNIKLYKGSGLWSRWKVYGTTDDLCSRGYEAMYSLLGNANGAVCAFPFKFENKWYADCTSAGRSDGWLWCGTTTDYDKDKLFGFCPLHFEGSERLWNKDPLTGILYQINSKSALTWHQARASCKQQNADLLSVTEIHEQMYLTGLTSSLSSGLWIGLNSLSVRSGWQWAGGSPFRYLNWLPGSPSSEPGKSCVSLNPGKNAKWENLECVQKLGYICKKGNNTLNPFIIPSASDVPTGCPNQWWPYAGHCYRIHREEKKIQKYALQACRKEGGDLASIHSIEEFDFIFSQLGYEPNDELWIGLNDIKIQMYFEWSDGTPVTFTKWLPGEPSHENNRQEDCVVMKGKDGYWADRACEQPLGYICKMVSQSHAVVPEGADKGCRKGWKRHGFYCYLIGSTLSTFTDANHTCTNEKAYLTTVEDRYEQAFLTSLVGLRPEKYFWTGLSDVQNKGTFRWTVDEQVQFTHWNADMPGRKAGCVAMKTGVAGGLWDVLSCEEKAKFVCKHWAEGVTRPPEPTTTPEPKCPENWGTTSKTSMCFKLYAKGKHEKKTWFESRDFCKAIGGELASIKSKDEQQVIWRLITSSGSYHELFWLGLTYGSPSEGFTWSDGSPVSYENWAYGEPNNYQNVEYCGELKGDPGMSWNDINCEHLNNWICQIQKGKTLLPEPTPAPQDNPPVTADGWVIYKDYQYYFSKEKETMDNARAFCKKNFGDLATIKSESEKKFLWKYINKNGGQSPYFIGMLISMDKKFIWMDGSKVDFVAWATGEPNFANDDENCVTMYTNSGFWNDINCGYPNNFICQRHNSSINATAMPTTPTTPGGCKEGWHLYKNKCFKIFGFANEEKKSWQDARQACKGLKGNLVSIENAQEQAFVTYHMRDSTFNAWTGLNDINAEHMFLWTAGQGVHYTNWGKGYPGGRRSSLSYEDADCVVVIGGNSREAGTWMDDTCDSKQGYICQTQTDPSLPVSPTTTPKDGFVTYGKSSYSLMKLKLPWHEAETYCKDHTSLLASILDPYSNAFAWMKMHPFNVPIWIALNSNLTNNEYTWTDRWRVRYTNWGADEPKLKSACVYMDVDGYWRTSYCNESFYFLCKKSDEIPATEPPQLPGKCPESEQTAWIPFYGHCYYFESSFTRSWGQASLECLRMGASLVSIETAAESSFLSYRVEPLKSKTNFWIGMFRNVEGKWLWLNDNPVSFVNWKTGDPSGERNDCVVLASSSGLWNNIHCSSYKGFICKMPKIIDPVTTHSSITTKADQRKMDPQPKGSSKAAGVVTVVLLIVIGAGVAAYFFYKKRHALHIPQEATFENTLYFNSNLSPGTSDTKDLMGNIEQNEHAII

percent of specific activity from total activity, inhibited by 4 mg/ml mannan: 65%
Substance: Cerezyme (commercial recombinant human GCD produced in mammalian CHO cells) (from UniProt P04062 40-536) (enzyme)
